Test results published in paper PMC2408616, “Modular Organization and Combinatorial Energetics of Proline–Tyrosine Nuclear Localization Signals” (PLoS Biology, 2008).
Positions count from the first letter of the chain named. Names and notes keep the numbering of the source. Where no end group is shown, it is not given here. MBP = not defined here

B1: MBP–Nab2p NLS 216KNRR219/AAAA (domain or fragment, S. cerevisiae, UniProt P32505 201-251, looked up)
chain: DNSQRFTQRGGGAVGAAAAGGRGGNRGGRNNNSTRFNPLAKALGMAGESNM
notes: Nab2p NLS, residues 201-251; source: E. coli BL21(DE3), purified (amylose resin, cation exchange)
B2: GST–Hrp1p, full-length (natural protein, S. cerevisiae, UniProt Q99383 1-534, looked up)
chain: MSSDEEDFNDIYGDDKPTTTEEVKKEEEQNKAGSGTSQLDQLAALQALSSSLNKLNNPNSNNSSSNNSNQDTSSSKQDGTANDKEGSNEDTKNEKKQESATSANANANASSAGPSGLPWEQLQQTMSQFQQPSSQSPPQQQVTQTKEERSKADLSKESCKMFIGGLNWDTTEDNLREYFGKYGTVTDLKIMKDPATGRSRGFGFLSFEKPSSVDEVVKTQHILDGKVIDPKRAIPRDEQDKTGKIFVGGIGPDVRPKEFEEFFSQWGTIIDAQLMLDKDTGQSRGFGFVTYDSADAVDRVCQNKFIDFKDRKIEIKRAEPRHMQQKSSNNGGNNGGNNMNRRGGNFGNQGDFNQMYQNPMMGGYNPMMNPQAMTDYYQKMQEYYQQMQKQTGMDYTQMYQQQMQQMAMMMPGFAMPPNAMTLNQPQQDSNATQGSPAPSDSDNNKSNDVQTIGNTSNTDSGSPPLNLPNGPKGPSQYNDDHNSGYGYNRDRGDRDRNDRDRDYNHRSGGNHRRNGRGGRGGYNRRNNGYHPYNR
notes: Hrp1p, S. cerevisiae; also called full-length Hrp1p; source: E. coli BL21(DE3), immobilized on glutathione sepharose
B3: MBP–Hrp1p NLS (domain or fragment, S. cerevisiae, UniProt Q99383 494-534, looked up)
chain: RDRNDRDRDYNHRSGGNHRRNGRGGRGGYNRRNNGYHPYNR
notes: Hrp1p NLS, residues 494-534; also called Hrp1p NLS wild type; source: E. coli BL21(DE3), purified (amylose resin, cation exchange)
B4: MBP–Hrp1p NLS Y532F (domain or fragment, S. cerevisiae, UniProt Q99383 494-534, looked up)
chain: B3 chain with Y39F
notes: Hrp1p NLS, residues 494-534; source: E. coli BL21(DE3), purified (amylose resin, cation exchange)
B5: MBP–Hrp1p NLS Y532H (domain or fragment, S. cerevisiae, UniProt Q99383 494-534, looked up)
chain: B3 chain with Y39H
notes: as for B4
B6: MBP–Hrp1p NLS 531PY532/AA (domain or fragment, S. cerevisiae, UniProt Q99383 494-534, looked up)
chain: {MBP}-RDRNDRDRDYNHRSGGNHRRNGRGGRGGYNRRNNGYHAANR
modifications: reading uncertain
notes: as for B4
B7: MBP–Hrp1p NLS Y532M (domain or fragment, S. cerevisiae, UniProt Q99383 494-534, looked up)
chain: B3 chain with Y39M
notes: as for B4
B8: MBP–Nab2p NLS R235H (domain or fragment, S. cerevisiae, UniProt P32505 201-251, looked up)
chain: B1 chain with A16K, A17N, A18R, A19R, R35H
notes: Nab2p NLS, residues 201-251; also called R235 to histidine; source: E. coli BL21(DE3), purified (amylose resin, cation exchange)
B9: MBP–Nab2p NLS R235A (domain or fragment, S. cerevisiae, UniProt P32505 201-251, looked up)
chain: B1 chain with A16K, A17N, A18R, A19R, R35A
notes: as for B1
B10: MBP–Nab2p NLS R219A (domain or fragment, S. cerevisiae, UniProt P32505 201-251, looked up)
chain: B1 chain with A16K, A17N, A18R
notes: as for B1
B11: MBP–Nab2p NLS R229A (domain or fragment, S. cerevisiae, UniProt P32505 201-251, looked up)
chain: B1 chain with A16K, A17N, A18R, A19R, R29A
notes: as for B1
B12: MBP–Nab2p NLS R235K (domain or fragment, S. cerevisiae, UniProt P32505 201-251, looked up)
chain: B1 chain with A16K, A17N, A18R, A19R, R35K
notes: Nab2p NLS, residues 201-251; also called R235 to lysine; source: E. coli BL21(DE3), purified (amylose resin, cation exchange)
B13: MBP–Nab2p NLS R222A, 238PL239/AA (domain or fragment, S. cerevisiae, UniProt P32505 201-251, looked up)
chain: DNSQRFTQRGGGAVGKNRRGGAGGNRGGRNNNSTRFNAAAKALGMAGESNM
notes: as for B1
B14: MBP–Nab2p NLS R235A, 238PL239/AA (domain or fragment, S. cerevisiae, UniProt P32505 201-251, looked up)
chain: B13 chain with A22R, R35A
notes: as for B1
B15: MBP–Nab2p NLS R222A (domain or fragment, S. cerevisiae, UniProt P32505 201-251, looked up)
chain: B13 chain with A38P, A39L
notes: as for B1
B16: MBP–Nab2p NLS R226A (domain or fragment, S. cerevisiae, UniProt P32505 201-251, looked up)
chain: B13 chain with A22R, R26A, A38P, A39L
notes: as for B1

Biological target: T1, Kap104p, P38217
T1 chain: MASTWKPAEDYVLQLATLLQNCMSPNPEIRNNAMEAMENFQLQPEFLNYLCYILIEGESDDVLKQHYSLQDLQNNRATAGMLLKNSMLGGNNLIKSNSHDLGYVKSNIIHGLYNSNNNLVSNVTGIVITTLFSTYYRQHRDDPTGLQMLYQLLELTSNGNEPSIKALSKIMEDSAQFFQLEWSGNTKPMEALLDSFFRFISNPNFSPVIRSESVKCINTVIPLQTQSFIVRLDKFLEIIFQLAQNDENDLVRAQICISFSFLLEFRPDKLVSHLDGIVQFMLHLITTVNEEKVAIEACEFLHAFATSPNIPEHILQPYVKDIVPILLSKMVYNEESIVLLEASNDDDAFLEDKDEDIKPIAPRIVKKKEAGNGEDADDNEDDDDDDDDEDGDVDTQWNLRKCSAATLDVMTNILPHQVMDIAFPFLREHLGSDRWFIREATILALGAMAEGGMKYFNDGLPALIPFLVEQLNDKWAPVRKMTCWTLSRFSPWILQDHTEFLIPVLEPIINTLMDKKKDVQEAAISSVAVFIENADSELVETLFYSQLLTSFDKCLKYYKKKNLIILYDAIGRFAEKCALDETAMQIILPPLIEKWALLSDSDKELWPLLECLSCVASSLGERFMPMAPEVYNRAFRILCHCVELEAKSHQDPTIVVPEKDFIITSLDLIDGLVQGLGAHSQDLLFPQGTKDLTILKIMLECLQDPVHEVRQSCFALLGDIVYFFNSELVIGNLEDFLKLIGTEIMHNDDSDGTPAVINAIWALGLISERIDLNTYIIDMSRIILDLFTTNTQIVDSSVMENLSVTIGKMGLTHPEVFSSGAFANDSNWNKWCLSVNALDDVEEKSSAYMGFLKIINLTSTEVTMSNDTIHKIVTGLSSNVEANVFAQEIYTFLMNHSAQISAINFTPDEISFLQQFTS
Assay: ITC
Conditions: chain shown with the change;; parent: 37 ± 20
Work on B1 yielded a Kd of 109 nM.

Each binder was assayed against T2, Kap104p (yeast (S. cerevisiae), UniProt P38217 1-918) (assay: pull-down; ~30 μg Kap104p added to ~10 μg GST protein immobilized on 20 μl glutathione sepharose; washes with TB buffer (20 mM HEPES pH 7.3, 110 mM KAc, 2 mM MgAc, 1 mM EGTA, 2 mM DTT, 20% glycerol); second incubation with buffer or RanGTP (5-fold molar excess); SDS-PAGE, Coomassie). Conditions: both partners purified.
T2 construct: Kap104p, yeast homolog of Kapβ2; gene a gift from J. Aitchison, subcloned into pGEX-Tev; also called yeast Karyopherin β2 homolog; source: E. coli Rosetta(DE3)pLysS, purified (glutathione sepharose, TEV cleavage, anion exchange, gel filtration)
T2 sequence (looked up): T1 chain
B2: binds.

What follows are binders tested against T2, Kap104p (assay: ITC; 90–350 μM MBP-NLS titrated into 9–35 μM Kap104p in the cell; 20 °C; 20 mM Tris pH 7.5, 100 mM NaCl, 2 mM β-mercaptoethanol, 10% glycerol; 35 injections of 8 μl; single-site model). Conditions: both partners purified.
B3 was tested, and the Kd was 32 nM.
In the case of B4, the “fold decrease in affinity against wild type” value is reported as 4 fold.
With B5 the Kd was 1000 nM.
Binder B6 has a Kd greater than 10000 nM.
In the case of B7, the Kd is reported as 2000 nM.
With B1 the “fold decrease in affinity against wild type” value was 3 fold.
B8 was tested, and the “KD,mutant/KD,wild type” value was 1.7.
With B9 the “KD,mutant/KD,wild type” value was 5.5.
With B10 the “KD,mutant/KD,wild type” value was roughly 1.
In the case of B11, the “KD,mutant/KD,wild type” value is reported as roughly 1.
With B12 the “KD,mutant/KD,wild type” value was 1.
B13 was tested, and the Kd was 411 nM.
Binder B14 has a Kd of 544 nM.
With B15 the “KD,mutant/KD,wild type” value was roughly 1.
For B16, the “KD,mutant/KD,wild type” value was roughly 1.
